Consider 7 molecules from patent publication US20260092093A1 (TJ BIOPHARMA SHANGHAI, published 2026).

Assay [1] concerns the target T1, hIL-18Rα ECD-Fc fusion protein (human, UniProt Q13478 22-329).
T1 construct: extracellular domain; captured on Protein A sensor
T1 sequence (looked up): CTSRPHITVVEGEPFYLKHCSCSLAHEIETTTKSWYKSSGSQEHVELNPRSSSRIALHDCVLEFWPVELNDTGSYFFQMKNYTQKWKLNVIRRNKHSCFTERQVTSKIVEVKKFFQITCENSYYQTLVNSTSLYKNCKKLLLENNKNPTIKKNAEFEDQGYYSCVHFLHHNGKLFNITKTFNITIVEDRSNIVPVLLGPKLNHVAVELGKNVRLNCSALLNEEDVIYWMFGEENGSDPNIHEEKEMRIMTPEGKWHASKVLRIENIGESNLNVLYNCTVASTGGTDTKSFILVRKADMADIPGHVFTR
Kind of assay: BLI (Octet RED96), hIL-18Rα ECD-Fc on Protein A sensor. The procedure: The affinities of IL-18 variant polypeptides for hIL-18Rα were assessed by Biolayer Interferometry (BLI) on Octet RED96 using Protein A sensor coated with hIL-18Rα ECD-Fc fusion protein, and WT hIL-18 was used as a control.
A general note: In BLI a coated tip is dipped into the sample, and binding shifts an interference pattern.

The target in assay [2] is T2, recombinant hIL-18Rα extracellular domain (human, UniProt Q13478 22-329, biotin label (selection) or fluorescent probe (single-clone FACS), sites not given).
T2 construct: extracellular domain; also called hIL-18Rα ECD; hIL-18Rα-ECD
T2 sequence (looked up): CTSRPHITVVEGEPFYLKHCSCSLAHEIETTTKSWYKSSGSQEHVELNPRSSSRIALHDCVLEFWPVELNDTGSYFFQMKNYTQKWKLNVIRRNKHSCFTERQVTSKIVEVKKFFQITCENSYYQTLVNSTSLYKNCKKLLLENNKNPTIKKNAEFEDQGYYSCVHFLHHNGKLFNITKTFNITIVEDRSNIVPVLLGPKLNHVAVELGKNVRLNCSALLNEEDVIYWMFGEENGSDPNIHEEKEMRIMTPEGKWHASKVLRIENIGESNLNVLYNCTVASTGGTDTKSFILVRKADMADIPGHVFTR
Description: single-clone FACS, yeast display, 10 nM labelled hIL-18Rα ECD. An outline of the steps:
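Yeast clones displaying IL-18 variants (screening rounds 4 and 5), at equal density, incubated with 10 nM fluorescently labelled hIL-18Rα ECD, then washed. Fraction of fluorescence-positive binding cells per clone measured by flow cytometry.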

B1: IL-18 variant polypeptide M18 (ligand)
chain: YFPKLRSKLSVIRNLNDQVLFIDQGNRPLFEDMTDSDCRDNAPRTIFIISMYKSSRRRGMAVTISVKCEKISTLSCENKIISFKEMNPPDGIKDTKSDIIFFQSSVPGHDNKMQFESSSYEGYFLACEKERDLFKLILKKEDELGDRSIMFTVQNED
As a reminder, the Kd is the free concentration of one partner at which half of the binding sites on the other are occupied at equilibrium, for simple one-to-one binding. One may read the koff as a measure of how fast the partners let go of each other. A higher koff goes with a short-lived complex. Usually kon stands for the rate constant with which the complex forms. Low readings indicate slower complex formation, high ones faster complex formation. On to B1, for which, in assay [1], binding was put at a Kd of 33.1 nM, the “Response (nm)” value worked out at 0.173 nm, the koff is 0.0134 s⁻¹ and the kon stood at 404000 M⁻¹ s⁻¹. Besides, in assay [2], the “% of fluorescence positive cells” value was 80.9%.

B2: IL-18 variant polypeptide M22 (ligand)
chain: YFPKLRSKLSVIRNLNDQVLFIDQGNRPLFEDMTDSDCRDNAPRTIFIISMYKYSRGRGMAVTISVKCEKISTLSCENKIISFKEMNPPDKIKDTKSDIIFFQSSVPGHDNKMQFESSSYEGYFLACEKERDLFKLILKKEDELGDRSIMFTVQNED
For B2, in assay [1], the Kd came to 4080 nM, the “Response (nm)” value was found to be 0.0592 nm, the koff turned out to be 0.0398 s⁻¹ and the kon stood at 9740 M⁻¹ s⁻¹. The “% of fluorescence positive cells” value in assay [2] was found to be 4.83%.

B3: IL-18 variant polypeptide M20 (ligand)
chain: YFPKLRSKLSVIRNLNDQVLFIDQGNRPLFEDMTDSDCRDNAPRTIFIISMYKSSRSRGMAVTISVKCEKISTLSCENKIISFKEMNPPDGIKDTKSDIIFFQSSVPGHDNKMQFESSSYEGYFLACEKERDLFKLILKKEDELGDRSIMFTVQNED
Regarding B3, in assay [1], the Kd was 35.1 nM, the “Response (nm)” value came to 0.136 nm, the koff was found to be 0.0167 s⁻¹ and the kon was 476000 M⁻¹ s⁻¹. Further, the “% of fluorescence positive cells” value in assay [2] came out at 86.2%.

B4: IL-18 variant polypeptide M21 (ligand)
chain: YFPKLRSKLSVIRNLNDQVLFIDQGNRPLFEDMTDSDCRDNAPRTIFIISMYKSSSTRGMAVTISVKCEKISTLSCENKIISFKEMNPPDGIKDTKSDIIFFQSSVPGHDNKMQFESSSYEGYFLACEKERDLFKLILKKEDELGDRSIMFTVQNED
Regarding B4, in assay [1], the Kd worked out at 64.9 nM, the “Response (nm)” value stood at 0.0791 nm, the koff came to 0.0221 s⁻¹ and the kon was 340000 M⁻¹ s⁻¹. For the same molecule, the “% of fluorescence positive cells” value in assay [2] is 89.9%.

B5: IL-18 variant polypeptide M23 (ligand)
chain: YFPKLRSKLSVIRNLNDQVLFIDQGNRPLFEDMTDSDCRDNAPRTIFIISMYKYSTRRGMAVTISVKCEKISTLSCENKIISFKEMNPPDNIKDTKSDIIFFQRSVPGHDNKMQFESSSYEGYFLACEKERDLFKLILKKEDELGDRSIMFTVQNED
As to B5, in assay [1], the Kd is 368 nM, the “Response (nm)” value turned out to be 0.0522 nm, the koff came out at 0.0302 s⁻¹ and the kon was found to be 82300 M⁻¹ s⁻¹. Besides, the “% of fluorescence positive cells” value in assay [2] was determined as 2.36%.

B6: IL-18 variant polypeptide M19 (ligand)
chain: YFPKLKSKLSVIRNLNDQVLFIDQGNRPLFEDMTDSDCRDNAPRTIFIISMYKHSEQRGMAVTISVKCEKISTLSCENKIISFKEMNPPDAIKDTKSDIIFFQRSVPGHDNKMQFESSSYEGYFLACEKERDLFKLILKKEDELGDRSIMFTVQNED
B6: in assay [1], the Kd turned out to be 112 nM, the “Response (nm)” value is 0.025 nm, the koff amounted to 0.0554 s⁻¹ and the kon was 495000 M⁻¹ s⁻¹. Moreover, in assay [2], the “% of fluorescence positive cells” value was 90%.

B7: IL-18 variant polypeptide M24 (ligand)
chain: YFPKLRSKLSVIRNLNDQVLFIDQGNRPLFEDMTDSDCRDNAPRTIFIISMYKYSTSRGMAVTISVKCEKISTLSCENKIISFKEMNPPDNIKDTKSDIIFFQRSVPGHDNKMQFESSSYEGYFLACEKERDLFKLILKKEDELGDRSIMFTVQNED
Regarding B7, in assay [1], the Kd was determined as 930 nM, the “Response (nm)” value is 0.0434 nm, the dissociation rate constant (koff) was found to be 0.0451 s⁻¹ and the kon is 48500 M⁻¹ s⁻¹. Besides, in assay [2], the “% of fluorescence positive cells” value is 1.36%.
